According to patent US20060263345A1, “Butyrylcholinesterase variant polypeptides with increased catalytic efficiency and methods of use” (priority 2003, published 2006):
Entries after “also recorded” stand apart in the source; their conditions may differ. Read-outs that look alike come from different tables or passages of the source.

Legend:
[1] = Km for cocaine hydrolysis by horse butyrylcholinesterase, isotope tracer assay, Lineweaver-Burk plot; assay type: biochemical; details: 2 hour incubation at 37° C.; x intercept = -1/Km
Source text: At the conclusion of the isotope tracer assay, an aliquot of the reaction mix is acidified in order to take advantage of the solubility difference between the product and the substrate at pH 3.0. […] Prospect, Ill.) while [3H]-cocaine is not.

[2] = read-out: Km for cocaine hydrolysis, previously published, cited from earlier work
[3] = cited from earlier work
[4] = microtiter isotope tracer [3H]-cocaine hydrolysis assay of immobilized butyrylcholinesterase variants; assay type: biochemical; details: for Relative Activity of butyrylcholinesterase variants (WT = 1) with enhanced cocaine hydrolase activity: relative to wild-type = 1, catalytic efficiency (Vmax/Km), [3H]-cocaine microtiter assay; for increase in cocaine hydrolysis activity relative to butyrylcholinesterase: compared to human butyrylcholinesterase SEQ ID NO: 44, approximate values
cocaine-induced toxicity = assay: in vivo cocaine toxicity, cocaine infusion 30 mg/kg in cannulated rats; details: rat; for effect of therapeutic treatment on cocaine-induced toxicity: FIG. 9; for effect of pre-treatment on cocaine-induced toxicity: i.v. 0.1-0.5 mg/kg, 1 minute before cocaine 2 mg/kg/min for 15 minutes, Chi-squared test p<0.001, FIG. 8
Procedure: Briefly, unilateral/bilateral jugular cannulations were performed under isoflurane anesthesia (max. 20 min) on 350 g male :Sprague Dawley®SD® rats (Harlan Sprague Dawley, Inc.) The animals were allowed to recover for 24 hours before studies commenced. […] One minute later, the cannula was connected to an infusion pump (Harvard Apparatus) and cocaine (HCI salt) was infused at 6 mls/hr (2 mg/kg/min) for 15 minutes corresponding to a total dose equal to 30 mg/kg. The time-to-onset for slight convulsions, strong convulsions and death were recorded. […] In a second series of studies, 0.5 mg/kg of the A328W/Y332M/S287G/F227A variant was administered at various time points after initiation of the 30mglkg cocaine infusion and gross observations recorded.
The variant was administered at the indicated doses, 1 minute prior to infusion of 30 mg/kg cocaine (2 mg/kg/min for 15 minutes).

horse butyrylcholinesterase
Km [1]: ~37.6 µM
Km ([2]; Gatley 1991): 38 µM
Km ([2]; Xie et al. 1999): 45 ± 5 µM

B1: A328Y (protein, UniProt P06276 29-602, looked up, variant A328Y)
Cholinesterase: EDDIIIATKNGKVRGMNLTVFGGTVTAFLGIPYAQPPLGRLRFKKPQSLTKWSDIWNATKYANSCCQNIDQSFPGFHGSEMWNPNTDLSEDCLYLNVWIPAPKPKNATVLIWIYGGGFQTGTSSLHVYDGKFLARVERVIVVSMNYRVGALGFLALPGNPEAPGNMGLFDQQLALQWVQKNIAAFGGNPKSVTLFGESAGAASVSLHLLSPGSHSLFTRAILQSGSFNAPWAVTSLYEARNRTLNLAKLTGCSRENETEIIKCLRNKDPQEILLNEAFVVPYGTPLSVNFGPTVDGDFLTDMPDILLELGQFKKTQILVGVNKDEGTYFLVYGAPGFSKDNNSIITRKEFQEGLKIFFPGVSEFGKESILFHYTDWVDDQRPENYREALGDVVGDYNFICPALEFTKKFSEWGNNAFFYYFEHRSSKLPWPEWMGVMHGYEIEFVFGLPLERRDNYTKAEEILSRSIVKRWANFAKYGNPNETQNNSTSWPVFKSTEQKYLTLNTESTRIMTKLRAQQCRFWTSFFPKVLEMTGNIDEAEWEWKAGFHRWNNYMMDWKNQFNDYTSKKESCVGL
increase in cocaine hydrolysis activity compared to human butyrylcholinesterase ([3]; Xie et al. 1999): four
cocaine hydrolysis activity (in words) ([3]; recombinantly prepared mutations tested previously): increased cocaine hydrolysis activity

B2: P285S (protein, UniProt P06276 29-602, looked up, variant P285S)
Cholinesterase: EDDIIIATKNGKVRGMNLTVFGGTVTAFLGIPYAQPPLGRLRFKKPQSLTKWSDIWNATKYANSCCQNIDQSFPGFHGSEMWNPNTDLSEDCLYLNVWIPAPKPKNATVLIWIYGGGFQTGTSSLHVYDGKFLARVERVIVVSMNYRVGALGFLALPGNPEAPGNMGLFDQQLALQWVQKNIAAFGGNPKSVTLFGESAGAASVSLHLLSPGSHSLFTRAILQSGSFNAPWAVTSLYEARNRTLNLAKLTGCSRENETEIIKCLRNKDPQEILLNEAFVVPYGTSLSVNFGPTVDGDFLTDMPDILLELGQFKKTQILVGVNKDEGTAFLVYGAPGFSKDNNSIITRKEFQEGLKIFFPGVSEFGKESILFHYTDWVDDQRPENYREALGDVVGDYNFICPALEFTKKFSEWGNNAFFYYFEHRSSKLPWPEWMGVMHGYEIEFVFGLPLERRDNYTKAEEILSRSIVKRWANFAKYGNPNETQNNSTSWPVFKSTEQKYLTLNTESTRIMTKLRAQQCRFWTSFFPKVLEMTGNIDEAEWEWKAGFHRWNNYMMDWKNQFNDYTSKKESCVGL
Relative Activity of butyrylcholinesterase variants (WT = 1) with enhanced cocaine hydrolase activity [4]: 1.9

B3: S287G (protein, UniProt P06276 29-602, looked up, variant S287G)
Cholinesterase: EDDIIIATKNGKVRGMNLTVFGGTVTAFLGIPYAQPPLGRLRFKKPQSLTKWSDIWNATKYANSCCQNIDQSFPGFHGSEMWNPNTDLSEDCLYLNVWIPAPKPKNATVLIWIYGGGFQTGTSSLHVYDGKFLARVERVIVVSMNYRVGALGFLALPGNPEAPGNMGLFDQQLALQWVQKNIAAFGGNPKSVTLFGESAGAASVSLHLLSPGSHSLFTRAILQSGSFNAPWAVTSLYEARNRTLNLAKLTGCSRENETEIIKCLRNKDPQEILLNEAFVVPYGTPLGVNFGPTVDGDFLTDMPDILLELGQFKKTQILVGVNKDEGTAFLVYGAPGFSKDNNSIITRKEFQEGLKIFFPGVSEFGKESILFHYTDWVDDQRPENYREALGDVVGDYNFICPALEFTKKFSEWGNNAFFYYFEHRSSKLPWPEWMGVMHGYEIEFVFGLPLERRDNYTKAEEILSRSIVKRWANFAKYGNPNETQNNSTSWPVFKSTEQKYLTLNTESTRIMTKLRAQQCRFWTSFFPKVLEMTGNIDEAEWEWKAGFHRWNNYMMDWKNQFNDYTSKKESCVGL
Relative Activity of butyrylcholinesterase variants (WT = 1) with enhanced cocaine hydrolase activity [4]: 4.1

B4: P285Q (protein, UniProt P06276 29-602, looked up, variant P285Q)
Cholinesterase: EDDIIIATKNGKVRGMNLTVFGGTVTAFLGIPYAQPPLGRLRFKKPQSLTKWSDIWNATKYANSCCQNIDQSFPGFHGSEMWNPNTDLSEDCLYLNVWIPAPKPKNATVLIWIYGGGFQTGTSSLHVYDGKFLARVERVIVVSMNYRVGALGFLALPGNPEAPGNMGLFDQQLALQWVQKNIAAFGGNPKSVTLFGESAGAASVSLHLLSPGSHSLFTRAILQSGSFNAPWAVTSLYEARNRTLNLAKLTGCSRENETEIIKCLRNKDPQEILLNEAFVVPYGTQLSVNFGPTVDGDFLTDMPDILLELGQFKKTQILVGVNKDEGTAFLVYGAPGFSKDNNSIITRKEFQEGLKIFFPGVSEFGKESILFHYTDWVDDQRPENYREALGDVVGDYNFICPALEFTKKFSEWGNNAFFYYFEHRSSKLPWPEWMGVMHGYEIEFVFGLPLERRDNYTKAEEILSRSIVKRWANFAKYGNPNETQNNSTSWPVFKSTEQKYLTLNTESTRIMTKLRAQQCRFWTSFFPKVLEMTGNIDEAEWEWKAGFHRWNNYMMDWKNQFNDYTSKKESCVGL
Relative Activity of butyrylcholinesterase variants (WT = 1) with enhanced cocaine hydrolase activity [4]: 2.4

B5: A328W/F227A (protein)
chain: EDDIIIATKNGKVRGMNLTVFGGTVTAFLGIPYAQPPLGRLRFKKPQSLTKWSDIWNATKYANSCCQNIDQSFPGFHGSEMWNPNTDLSEDCLYLNVWIPAPKPKNATVLIWIYGGGFQTGTSSLHVYDGKFLARVERVIVVSMNYRVGALGFLALPGNPEAPGNMGLFDQQLALQWVQKNIAAFGGNPKSVTLFGESAGAASVSLHLLSPGSHSLFTRAILQSGSANAPWAVTSLYEARNRTLNLAKLTGCSRENETEIIKCLRNKDPQEILLNEAFVVPYGTPLSVNFGPTVDGDFLTDMPDILLELGQFKKTQILVGVNKDEGTWFLVYGAPGFSKDNNSIITRKEFQEGLKIFFPGVSEFGKESILFHYTDWVDDQRPENYREALGDVVGDYNFICPALEFTKKFSEWGNNAFFYYFEHRSSKLPWPEWMGVMHGYEIEFVFGLPLERRDNYTKAEEILSRSIVKRWANFAKYGNPNETQNNSTSWPVFKSTEQKYLTLNTESTRIMTKLRAQQCRFWTSFFPKVLEMTGNIDEAEWEWKAGFHRWNNYMMDWKNQFNDYTSKKESCVGL
modifications: Butyrylcholinesterase variant
cocaine hydrolysis activity compared to butyrylcholinesterase (in words) ([4]; compared to human butyrylcholinesterase): enhanced cocaine hydrolase activity
increase in cocaine hydrolysis activity relative to butyrylcholinesterase [4]: sixty-eight
Relative Activity of butyrylcholinesterase variants (WT = 1) with enhanced cocaine hydrolase activity [4]: 68

B6: A328W/Y332M/S287G/F227A (protein)
chain: EDDIIIATKNGKVRGMNLTVFGGTVTAFLGIPYAQPPLGRLRFKKPQSLTKWSDIWNATKYANSCCQNIDQSFPGFHGSEMWNPNTDLSEDCLYLNVWIPAPKPKNATVLIWIYGGGFQTGTSSLHVYDGKFLARVERVIVVSMNYRVGALGFLALPGNPEAPGNMGLFDQQLALQWVQKNIAAFGGNPKSVTLFGESAGAASVSLHLLSPGSHSLFTRAILQSGSANAPWAVTSLYEARNRTLNLAKLTGCSRENETEIIKCLRNKDPQEILLNEAFVVPYGTPLGVNFGPTVDGDFLTDMPDILLELGQFKKTQILVGVNKDEGTWFLVMGAPGFSKDNNSIITRKEFQEGLKIFFPGVSEFGKESILFHYTDWVDDQRPENYREALGDVVGDYNFICPALEFTKKFSEWGNNAFFYYFEHRSSKLPWPEWMGVMHGYEIEFVFGLPLERRDNYTKAEEILSRSIVKRWANFAKYGNPNETQNNSTSWPVFKSTEQKYLTLNTESTRIMTKLRAQQCRFWTSFFPKVLEMTGNIDEAEWEWKAGFHRWNNYMMDWKNQFNDYTSKKESCVGL
modifications: Butyrylcholinesterase variant
effect of therapeutic treatment on cocaine-induced toxicity (cocaine-induced toxicity; 0.5 mg/kg administered at 8 minutes into the 30 mg/kg cocaine infusion (after first slight convulsions)): full protection
effect of therapeutic treatment on cocaine-induced toxicity (cocaine-induced toxicity; 0.5 mg/kg administered at later time points than 8 minutes, 0.5 mg/kg): decreased in ability to protect
effect of therapeutic treatment on cocaine-induced toxicity (cocaine-induced toxicity; 0.5 mg/kg administered at later time points than 8 minutes, listed as AME-359, 0.5 mg/kg): decreased in ability to protect
effect of pre-treatment on cocaine-induced toxicity (cocaine-induced toxicity): decreasing cocaine-toxicity; also recorded: statistically significant protection against cocaine
effect of pre-treatment on cocaine-induced toxicity (cocaine-induced toxicity; listed as AME-359): statistically significant protection against cocaine
time-of-onset of symptoms associated with cocaine-induced toxicity (cocaine-induced toxicity; pre-treatment 1 minute before 30 mg/kg cocaine infusion, FIG. 12): delaying the time-of-onset of symptoms
increase in cocaine hydrolysis activity relative to butyrylcholinesterase [4]: one-hundred

B7: A328W (protein, UniProt P06276 29-602, looked up, variant A328W)
Cholinesterase: EDDIIIATKNGKVRGMNLTVFGGTVTAFLGIPYAQPPLGRLRFKKPQSLTKWSDIWNATKYANSCCQNIDQSFPGFHGSEMWNPNTDLSEDCLYLNVWIPAPKPKNATVLIWIYGGGFQTGTSSLHVYDGKFLARVERVIVVSMNYRVGALGFLALPGNPEAPGNMGLFDQQLALQWVQKNIAAFGGNPKSVTLFGESAGAASVSLHLLSPGSHSLFTRAILQSGSFNAPWAVTSLYEARNRTLNLAKLTGCSRENETEIIKCLRNKDPQEILLNEAFVVPYGTPLSVNFGPTVDGDFLTDMPDILLELGQFKKTQILVGVNKDEGTWFLVYGAPGFSKDNNSIITRKEFQEGLKIFFPGVSEFGKESILFHYTDWVDDQRPENYREALGDVVGDYNFICPALEFTKKFSEWGNNAFFYYFEHRSSKLPWPEWMGVMHGYEIEFVFGLPLERRDNYTKAEEILSRSIVKRWANFAKYGNPNETQNNSTSWPVFKSTEQKYLTLNTESTRIMTKLRAQQCRFWTSFFPKVLEMTGNIDEAEWEWKAGFHRWNNYMMDWKNQFNDYTSKKESCVGL
Relative Activity of butyrylcholinesterase variants (WT = 1) with enhanced cocaine hydrolase activity [4]: 7
